Measurements: PMC7137805

What was measured:
[1] = biological target: Recombinant human laminin‐332 (human) (UniProt Q16787); experiment: SPR; BIAcore 3000, 25 °C; laminin-332 immobilised on a CM5 chip (approx. 5000 RU); vWFA2 as analyte, 2.5-420 µM; running buffer 10 mM sodium phosphate pH 7.4, 150 mM NaCl; binding isotherms
[2] = biological target: Recombinant human laminin‐332 (human) (UniProt Q16787); experiment: SPR; as a1, with MgCl2 added to the running buffer to 2.5 mM

| Substance | Kd [1] [µM] | Kd [2] [µM] |
| --- | --- | --- |
| untagged vWFA2 (vWFA2 lacking any tag residues) of murine type VII collagen (from UniProt Q63870 1048-1238) (domain or fragment) | 440 | – |
| vWFA2 subdomain (amino acids 1048–1238) of murine type VII collagen, purified by intein cleavage (from UniProt Q63870 1048-1238) (domain or fragment) | 810 | 1100 |
